Results: patent US20190270793A1

Target: tau seeds in spinal cord homogenates of P301S transgenic mice (aggregated transgenic human tau) (human), P10636
Experiment: cell-based or functional assay

tau seeds in spinal cord homogenates of P301S transgenic mice (aggregated transgenic human tau) (human), P10636, sequence (P10636 other isoform, or with tags, fused parts or gaps P301S P301S): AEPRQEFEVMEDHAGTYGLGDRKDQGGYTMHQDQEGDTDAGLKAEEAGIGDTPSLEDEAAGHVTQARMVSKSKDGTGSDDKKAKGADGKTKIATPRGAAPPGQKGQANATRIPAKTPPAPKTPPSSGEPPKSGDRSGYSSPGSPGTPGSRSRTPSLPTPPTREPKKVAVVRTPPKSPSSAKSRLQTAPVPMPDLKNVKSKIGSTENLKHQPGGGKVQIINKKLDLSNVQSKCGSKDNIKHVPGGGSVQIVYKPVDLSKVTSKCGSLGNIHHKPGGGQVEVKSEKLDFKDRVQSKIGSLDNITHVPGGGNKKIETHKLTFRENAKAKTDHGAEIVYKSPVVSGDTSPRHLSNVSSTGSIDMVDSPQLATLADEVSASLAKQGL

B1: PT82 mAb, recombinantly expressed (mouse IgG2a/kappa) (antibody, V domains shown)
VH: EVKLEESGGGLVQPGGSMKLSCVASGFTFSNYWMNWIRQSPEKGLEWVAQIRLQSDNYATRYAESVKGRFTISRDESKTSVYLQMNNLRTEDTGIYYCTGGTTYWGQGTLVTVSA
VL: DIVMTQSQKFMSTSVGDRVSITCKASQNVGTAVAWYQQKPGQSPKLLIYSASIRYTGVPDRFTGSGSGTDFTLTINYMQSEDLADYFCQQFSSYPYTFGGGTKLEIK
Question: Which Tau aggregate induction (K18 aggregate formation, FRET-positive HEK cells counted by FACS) does the source give for B1 here?
Answer: 3 nM
